Molecular target: T1, MBP-TPD54-His (human, UniProt O43399 1-206)
T1 construct: human Tumor protein D54 (TPD54/TPD52L2) inserted in the pMalPre-His vector; also called recombinant MBP-TPD54-His; source: E. coli BL21, purified (HisTrap); not shown: MBP, N-terminal, kept; His, C-terminal, kept
Test: pull-down; 3 µM GST, GST-Rab1a or GST-Rab6a pre-loaded with 300 µM GppNHp, incubated with 3 µM MBP-TPD54-His 90 min at 20 °C in 25 mM HEPES, 150 mM KCl, 5 mM MgCl2 pH 7.4; glutathione-sepharose beads; Coomassie gel
Settings: both partners purified

T1 sequence (O43399 whole entry): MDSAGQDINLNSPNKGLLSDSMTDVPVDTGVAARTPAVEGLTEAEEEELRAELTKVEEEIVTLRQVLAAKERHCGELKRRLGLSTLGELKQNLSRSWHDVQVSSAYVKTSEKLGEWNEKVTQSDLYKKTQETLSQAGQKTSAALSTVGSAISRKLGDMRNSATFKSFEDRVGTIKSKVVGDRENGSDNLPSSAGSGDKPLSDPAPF

binding result: binds
B1: GST-Rab1a (natural protein)
chain: not shown
notes: human Rab1a, cut from GFP-Rab1a and inserted into pGEX-6P1; pre-loaded with GDP or GppNHp; source: E. coli BL21, purified (GSTrap); not shown: GST, N-terminal, kept

— paper doi:10.1101/481754, “Tumor Protein D54 is a promiscuous Rab effector” (bioRxiv, 2018)
